Laboratory results as given in paper PMC11470960 (Immunity, 2024).

Key:
PLD3(H201N,H416N) = molecular target: T1, PLD3(H201N,H416N) (Homo sapiens, UniProt Q8IV08 60-490, H201N;H416N); experiment: fluorescence anisotropy
T1 sequence: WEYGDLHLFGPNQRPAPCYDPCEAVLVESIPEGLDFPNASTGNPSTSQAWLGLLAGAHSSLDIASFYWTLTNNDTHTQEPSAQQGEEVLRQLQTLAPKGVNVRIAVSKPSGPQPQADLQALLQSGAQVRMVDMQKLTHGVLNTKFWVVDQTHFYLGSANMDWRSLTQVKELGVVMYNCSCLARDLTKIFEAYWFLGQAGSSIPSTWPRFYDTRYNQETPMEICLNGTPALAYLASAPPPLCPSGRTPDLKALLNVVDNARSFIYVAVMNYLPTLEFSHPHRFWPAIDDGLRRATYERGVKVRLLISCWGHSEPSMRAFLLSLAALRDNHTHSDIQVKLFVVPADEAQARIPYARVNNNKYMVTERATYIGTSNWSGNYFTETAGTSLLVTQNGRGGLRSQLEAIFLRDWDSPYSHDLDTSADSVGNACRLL

SEC = molecular target: the molecule itself; experiment: SEC
PLD3 (active) = molecular target: T2, PLD3 (active) (Homo sapiens, UniProt Q8IV08 60-490); experiment: cryo-EM
T2 sequence: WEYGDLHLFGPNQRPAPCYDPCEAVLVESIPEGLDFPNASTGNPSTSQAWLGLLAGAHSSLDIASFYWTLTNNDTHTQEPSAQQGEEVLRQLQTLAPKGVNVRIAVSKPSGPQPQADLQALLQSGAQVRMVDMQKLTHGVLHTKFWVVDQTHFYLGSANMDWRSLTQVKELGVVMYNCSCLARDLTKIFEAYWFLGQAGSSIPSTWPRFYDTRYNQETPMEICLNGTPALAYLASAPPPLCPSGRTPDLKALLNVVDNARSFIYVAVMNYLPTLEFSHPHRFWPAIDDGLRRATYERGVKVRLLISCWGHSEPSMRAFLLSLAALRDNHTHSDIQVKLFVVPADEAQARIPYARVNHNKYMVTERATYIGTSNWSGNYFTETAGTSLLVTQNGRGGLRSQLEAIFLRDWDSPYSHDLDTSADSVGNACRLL

AGCUUAACCUG (ssRNA) [RNA9.2s 11 nt]
binding result (PLD3(H201N,H416N)): no binding

B1: PLD3(V232M), soluble catalytic domain (enzyme, human)
chain: WEYGDLHLFGPNQRPAPCYDPCEAVLVESIPEGLDFPNASTGNPSTSQAWLGLLAGAHSSLDIASFYWTLTNNDTHTQEPSAQQGEEVLRQLQTLAPKGVNVRIAVSKPSGPQPQADLQALLQSGAQVRMVDMQKLTHGVLHTKFWVVDQTHFYLGSANMDWRSLTQVKELGMVMYNCSCLARDLTKIFEAYWFLGQAGSSIPSTWPRFYDTRYNQETPMEICLNGTPALAYLASAPPPLCPSGRTPDLKALLNVVDNARSFIYVAVMNYLPTLEFSHPHRFWPAIDDGLRRATYERGVKVRLLISCWGHSEPSMRAFLLSLAALRDNHTHSDIQVKLFVVPADEAQARIPYARVNHNKYMVTERATYIGTSNWSGNYFTETAGTSLLVTQNGRGGLRSQLEAIFLRDWDSPYSHDLDTSADSVGNACRLL
binding result (SEC): binds

UCUCUCUCUCUCUCUCUCUC (ssRNA, phosphorothioate backbone) [(rU*rC*)10 ssRNA]
binding result (PLD3 (active)): binds
